Reference: patent publication US20180021429A1, “ANTICANCER AGENTS OR ANTIMETASTATIC AGENTS USING FSTL1 AND COMBINATION DRUG THEREOF” (PHARMA FOODS INTERNATIONAL CO., LTD., priority 2015, published 2018)
Substitutions are numbered along the chain they refer to. Entries after “also recorded” stand apart in the source; their conditions may differ.

Experiments:
FSTL1 = target: T1, FSTL1 (Homo sapiens, UniProt Q12841); experiment: Inhibition of MSC induction by FSTL1 in mouse bone marrow cells, ALCAM- and PDGFRA-positive cells (Example 4); format: cell-based; design: purchased R&D Systems, Inc. 1694-FN-050; settings: FSTL1 50 ng/mL, antibody 10 μg/mL, 11 days, vs control anti-DNP antibody
T1 sequence (Q12841 21-308): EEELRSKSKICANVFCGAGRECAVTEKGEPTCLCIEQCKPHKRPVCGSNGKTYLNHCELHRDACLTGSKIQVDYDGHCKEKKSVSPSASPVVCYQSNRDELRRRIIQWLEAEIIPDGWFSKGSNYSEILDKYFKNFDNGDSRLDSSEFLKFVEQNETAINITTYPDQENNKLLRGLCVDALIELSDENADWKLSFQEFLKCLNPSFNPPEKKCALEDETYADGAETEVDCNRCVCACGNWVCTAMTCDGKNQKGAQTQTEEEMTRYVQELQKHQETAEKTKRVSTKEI
Procedure: It is known that when bone marrow cells are stimulated with FSTL1, mesenchymal stem cells (MSCs) having pluripotency or self-proliferative capacity grow (Cancer Research 73: 6185, 2013). Thus, 2×10^7 cells/well of bone marrow cells collected from the thigh bone of a C57BL/6 mouse were suspended in 3 mL/well of RPMI1640 (GIBCO/Thermo Fisher Scientific Inc., Cat. No. C11875500BT) medium containing 2% fetal bovine serum, supplemented with 50 ng/mL (final concentration) of FSTL1 (R&D Systems, Inc. Cat#1694-FN-050) and 10 μg/mL of the anti-FSTL1 antibody (#5-2, #5-3, #5-8, #5-10, #5-43, #6-55, or #7-34) or its isotype mouse IgG (anti-DNP antibody) as a control antibody “Control”, and cultured under stimulation (6-well plate). 11 days thereafter, the number of cells was counted while the cells were stained with a PE-labeled anti-ALCAM antibody (eBioscience, Cat. No. 12-1661-82) and a PE-labeled anti-PDGFRA antibody (eBioscience, Cat#12-1401-81) in order to examine the expression of MSC markers, and the contents of ALCAM-positive cells and PDGFR-positive cells were analyzed by flow cytometry using FACScan (Becton, Dickinson and Company, Code. BECTON-DICKINSON-FACSCAN) to calculate the number of each positive cell per culture.

[1] = tested on: induction of mesenchymal stem cells (MSCs) by FSTL1; experiment: Inhibitory activity against MSC induction, ALCAM-/PDGFRA-positive cells (Example 4); format: cell-based; settings: mouse bone marrow cells; FSTL1 50 ng/mL; antibody 10 μg/mL; 11 days; vs control antibody
Procedure: It is known that when bone marrow cells are stimulated with FSTL1, mesenchymal stem cells (MSCs) having pluripotency or self-proliferative capacity grow (Cancer Research 73: 6185, 2013). Thus, 2×10^7 cells/well of bone marrow cells collected from the thigh bone of a C57BL/6 mouse were suspended in 3 mL/well of RPMI1640 (GIBCO/Thermo Fisher Scientific Inc., Cat. No. C11875500BT) medium containing 2% fetal bovine serum, supplemented with 50 ng/mL (final concentration) of FSTL1 (R&D Systems, Inc. Cat#1694-FN-050) and 10 μg/mL of the anti-FSTL1 antibody (#5-2, #5-3, #5-8, #5-10, #5-43, #6-55, or #7-34) or its isotype mouse IgG (anti-DNP antibody) as a control antibody “Control”, and cultured under stimulation (6-well plate). 11 days thereafter, the number of cells was counted while the cells were stained with a PE-labeled anti-ALCAM antibody
(eBioscience, Cat. No. 12-1661-82) and a PE-labeled anti-PDGFRA antibody (eBioscience, Cat#12-1401-81) in order to examine the expression of MSC markers, and the contents of ALCAM-positive cells and PDGFR-positive cells were analyzed by flow cytometry using FACScan (Becton, Dickinson and Company, Code. BECTON-DICKINSON-FACSCAN) to calculate the number of each positive cell per culture.
It is known that when bone marrow cells are stimulated with FSTL1, mesenchymal stem cells (MSCs) having pluripotency or self-proliferative capacity grow (Cancer Research 73: 6185, 2013). […] 11 days thereafter, the number of cells was counted while the cells were stained with a PE-labeled anti-ALCAM antibody (eBioscience, Cat. No. 12-1661-82) and a PE-labeled anti-PDGFRA antibody (eBioscience, Cat#12-1401-81) in order to examine the expression of MSC markers, and the contents of ALCAM-positive cells and PDGFR-positive cells were analyzed by flow cytometry using FACScan (Becton, Dickinson and Company, Code. BECTON-DICKINSON-FACSCAN) to calculate the number of each positive cell per culture.

mouse FSTL1 = target: T2, mouse FSTL1 (Mus musculus, UniProt Q62356); experiment: ELISA binding activity of purified antibody against mouse FSTL1 (Example 2)
T2 construct: AAA linker + 10xHis (C); made in house; host or cells: Expi293 (transient expression; purified from culture supernatant on HisPur Cobalt Resin)
T2 sequence (Q62356 with tags, fused parts or gaps): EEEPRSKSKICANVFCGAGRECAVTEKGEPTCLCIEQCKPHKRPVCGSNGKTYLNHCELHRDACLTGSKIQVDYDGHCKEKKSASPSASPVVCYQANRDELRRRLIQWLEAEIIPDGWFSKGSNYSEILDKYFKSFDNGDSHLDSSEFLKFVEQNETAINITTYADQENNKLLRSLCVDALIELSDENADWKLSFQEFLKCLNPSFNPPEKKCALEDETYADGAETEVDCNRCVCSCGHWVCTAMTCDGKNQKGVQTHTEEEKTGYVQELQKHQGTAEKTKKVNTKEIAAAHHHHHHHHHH
Procedure: The reactivity of the obtained antibody clones described above with FSTL1 was evaluated by ELISA under the following conditions.
(Table 2 ELISA conditions for binding activity evaluation of purified antibody) Antibodies used: anti-dinitrophenyl (DNP) antibody (negative control), #5-2, #5-3, #5-8, #5-10, #5-43, #6-55, and #7-34
FIGS. 2 and 3 show results of evaluating binding activity under the condition of Table 3 as to clones differing in screening and antibody purification timings.
Antibodies used: anti-dinitrophenyl (DNP) antibody (negative control), #5-2, #5-3, #5-8, #5-10, #5-43, #6-55, and #7-34
FIGS. 32 and 33 show results of evaluating binding activity under the condition of Table 3 as to clones differing in screening and antibody purification timings.

B1: #5-43: chicken-mouse chimeric anti-FSTL1 antibody clone; variable regions SEQ ID NO: 779 (light), 781 (heavy) (antibody, V domains shown)
VH: AVTLDESGGGLQTPGGGLSLVCKGSGFTFSSFNMFWVRQAPGKGLEWVAGIGKDGGTGYGAAVDGRATISKDSGQSTLRLQLNNLRAEDTGTYYCAKAAGGCSYDWCGAYTGDIDTWGHGTEVIVSS
VL: ASTQPSSVSANPGEAVKITCSGGSGSYYGWYQQKSPGSAPVTVIYNNNQRPSDIPSRFSGSKSGSTATLTITGVQAEDEAVYFCGGYDSSTGHGGIFGAGTTLTVL
modifications: mouse constant regions
inhibitory activity against the expansion of ALCAM-positive cells and PDGFRA-positive cells by FSTL1 (FSTL1): slightly strong tendency of inhibitory activity | inhibitory activity against the expansion of ALCAM-positive cells and PDGFRA-positive cells by FSTL1 [1]: slightly strong tendency of inhibitory activity

B2: #8-1: chicken-mouse chimeric anti-FSTL1 antibody clone; variable regions SEQ ID NO: 791 (light), 793 (heavy) (antibody, V domains shown)
VH: B1 VH with G17A, G56V, T57P, G58K, S73N, L78M, Y94F, A109I, T111A
VL: B1 VL with T91S
modifications: mouse constant regions
binding activity against mouse FSTL1 (mouse FSTL1; FIG. 3B/33B): slightly exhibited binding activity; also recorded: very slightly exhibited binding activity

B3: #8-4: chicken-mouse chimeric anti-FSTL1 antibody clone; variable regions SEQ ID NO: 795 (light), 797 (heavy) (antibody, V domains shown)
VH: B1 VH with F29L, I51V, G58A, K71R, L78V, Y94F, D105S, T111V, I114L, T116A
VL: ASSQPSSVSANPGETVKITCSGGSGYYYGWYQQKSPGSAPVTVIYNNDNKPSDIPSRFSGSKSGSTGTLTITGVQVEDEAVYFCGGYDNSGTGIFGAGTTLTVL
modifications: mouse constant regions
binding activity against mouse FSTL1 (mouse FSTL1; FIG. 3B/33B): no binding activity

B4: #5-8: chicken-mouse chimeric anti-FSTL1 antibody clone; variable regions SEQ ID NO: 771 (light), 773 (heavy) (antibody, V domains shown)
VH: B1 VH with G56V, T57P, G58K, A61T, S73N, L78M, Y94F, A109I
VL: B1 VL
modifications: mouse constant regions
binding activity against mouse FSTL1 (mouse FSTL1; FIG. 3B/33B): no binding activity

B5: #6-55: chicken-mouse chimeric anti-FSTL1 antibody clone; variable regions SEQ ID NO: 783 (light), 785 (heavy) (antibody, V domains shown)
VH: AVTLDESGGGLQTPGGALSLVCKGSGFTFTSVTMQWVRQAPGKGLEWVASVCSGSSTYYAPAVKGRATISRDNGQSTVRLQLSNLRPEDTGTYYCAKIAGRARWSCTSAAYNIDAWGHGTEVIVSS
VL: ASTQPSSVSAIPGETVKITCSGGGNNYGWYQQRSPGSAPVTVIYYNDNRPSNIPSRFSGSTSGSTSTLTITGVQADDEAIYYCGSWDSNTDSGIFGAGTTLTVL
modifications: mouse constant regions
inhibitory activity against the expansion of ALCAM-positive cells and PDGFRA-positive cells by FSTL1 (FSTL1): slightly strong tendency of inhibitory activity | inhibitory activity against the expansion of ALCAM-positive cells and PDGFRA-positive cells by FSTL1 [1]: slightly strong tendency of inhibitory activity | binding activity against mouse FSTL1 (mouse FSTL1; FIG. 1B/31B): specific and equivalently strong binding activity

B6: #7-34: chicken-mouse chimeric anti-FSTL1 antibody clone; variable regions SEQ ID NO: 787 (light), 789 (heavy) (antibody, V domains shown)
VH: AVTLDESGGGLQTPGGGLSLVCKASGFTFSSVTMQWVRQAPGKGLEWVASICSGSSTYYGPAVKGRATISRDNGQNTVRLQLNNLRAEDTATYYCAKIVGRGRWSCTSAAYNIDAWGHGTEVIVSS
VL: B5 VL with I11N, R33K, D47N, D76E, I80V, W86Y, D87E, S88G, N89S
modifications: mouse constant regions
inhibitory activity against the expansion of ALCAM-positive cells and PDGFRA-positive cells by FSTL1 (FSTL1): slightly strong tendency of inhibitory activity | inhibitory activity against the expansion of ALCAM-positive cells and PDGFRA-positive cells by FSTL1 [1]: slightly strong tendency of inhibitory activity | binding activity against mouse FSTL1 (mouse FSTL1; FIG. 1B/31B): specific and equivalently strong binding activity
